Results as given in the DeepSol protein solubility set.

Assay: soluble on expression in E. coli; label from the status in PepcDB or PDB records

| Sequence | soluble on expression in E. coli |
| --- | --- |
| MSLASPDWQDQIIYFLMIDRFNDGDSALNDQGQNEFDPTSDKKFSGGDLVGVSDKLSYIEDLGATSIWITPPVANQWWDAEQNYGGYHGYWARDFQKVDEHFGDMESYQALAREVHARNMFLIQDIVTNHVGNFFTYDDPYSYDPSLPCQGFRLIKNALPAGQELPYPLNMNECKTDGTGSYHWTPTITDHNDPVQEKTWQLSDLDDLNTSDPEVRAYLKESYRKWIREVGVDGFRIDTVKFVEHDFWSDFLHADDGVMTQAVDTGRDNFLTFGEVFETSTPYHTEGEEKMLTYIGESGSPKQLTSVLNFPLQATMTRVFASGQPTDYLRFRLEKMMEMFPNPYIMPNFIDNHDMPRFLSQGSVNDMKQALITMMSVPGIPVIYQGTEQAMSAARDAMFAGGYREDGNYVDSFDQNSEMYLFIQELAKLRTENKVMTRGEIKVIGSDKAGAGVFAFTRTLDNDEVLVVMNTSNSPMLMNQLDVEQAGGTVFKQQIMSNWADAPEQLVADENGHVTLELPAKSAVIYSKTSSNQSVNTPDLNIQLAQDWEGKTITGDIVIAGSANANEKLNLVVDGNLETAQTITVGADGQFSVTLSTRHFAIGEQQHRFAIYSTEKKAGIEDVNFVSNLSWSNTPDDTIDDAGDAQDGVGGPNGNYSLPTDPTFDKDNSQLAINKAEVFTVGSNVRLTFTMDKITDTWLPPNGFDHVGFTIFIDLPEEAATNLSELPKINASMPNGTWSRNAVVFGWQSSIYNTKGANATTWGEAVTPAPTVTVDKANNTISMDFASDALGRPESLDGIRFYVTTWDLDGLSATYRPLEQDKGPWNFSGGASDESKIWDDLPIITLSEGHHHHHH | not soluble |
| MSLATIYDVAKAAGVSPKTVSRVLNDDAPVNESTRQAVNEAIAALDYLPSQAARMMRSSRSRLIGLITGAISQEIGPAVQSGLPEMNIVQAIQREMSAQGKILMISDTGGRADAAPVLARTFAQHRVEGLIYVADHHREIEMDLTSGNCPVVLVNCYDAAATPCVLPDDEAGEAALVARLIEAGHRRIGFLPPDRTQPAARLRLDGYRTALAAAGLAYDPDLVAHVHDPDADRARALLTEALDALLSLDAPPSVICCTNDEMAMRLYGLLRSRGLRVPDDISVAGYDDHKTISEMLYPQLTTVVLPYSEMGRQAARLMLELIEGKPLASPGPTLVDGPVVWRSSVTEGHHHHHH | soluble |
| MSLATYETFAAVYDAVMDDTLYAKWTDFSLRHFPKGKKKLLELACGTGIQSVRFAQAGYAVTGLDLSGDMLKLAKKRATSAHQSIQFIEGNMLDLSNVGKYDLITCYSDSICYMQDEVEVGDVFIEVYKALEENGVFIFDVHSTYQTDKVFPGYSYHENADDFAMVWDTYEDDAPHSIVHELTFFVQEEDGRFTRHDEVHEERTYDILTYDILLEQAGFKDVKVYADFEDKKPTATSARWFFVAHKEGHHHHHH | soluble |
| MSLAVEAVIWDFGGVFTTSPFEAFRRYETERGLPKDFIRTVNATDPDANAWARFERAEIDAAAFDGLFRQEALRLGHDVRGADVLPLLYGDLRPSVMAALKTCKAQFKVGCITNNVPTGHGPGMAQSAEKALAVGEIMALFDAVIESSKAGVRKPDPRIYQMMCELLGVAPEACIYLDDLGINCKPAAALGMTAIKVSDERQLLDDLAKATGLAFEGHHHHHH | soluble |
| MSLAVGKYTQLISDLLQSVSIVDALPRGAAQAGILCQDTKEVLESENTVLEIAIPRQDNLVIVGDIHGQFADMLSNVLSIQLNLNNTKATDGRGSPSTEIYKFLFLGDYVDRGPQSLEVITLLFALKVEYPEHIFLLRGNHEEAQTSRLYGFFQECKSKLEGTGDRGPASVDITSSTWLQYNTVFCWLPLAAVVACPSGMFFCTHGGLSPHTLSVPLLRSLRRNEYGMVDDFEDTFYTPTSRGGDDMLEGPGAKARLVIDGLLWSDPEDQVSGCQMNNRGCGFIFGPDVTRSFLDRNYSYGFPPSKRQLIGEMKPGMQFILRGHQCAREGYMWCHGGLVLTLFSAPNYCGMHGNKGAVALLRGQVQAGKDRVELEFNVYDTVVRGGSDNLVACLSPFAFAHYFSGDSEGHHHHHH | not soluble |
| MSLAVKILSVDDELDLEVLLTQYFRRQIRKGEYEFAFAHNGLEALQKLLETPDFDIILSDINMPEMDGLTLLAKVNELKNPAMKCIMVSAYGDMDNIRSAMNKGAFDFATKPIDLDDLSRTIEKAIEQVRYIRESQQEHNQLESIKNDLAIAGEIQQTILPRSFPPFPELTEVVNIYASMTPAKDVGGDFYDFFQIDDERIGLVIADVSGKGVPASLFMAVSRTLLRATALRGVSSAECLTYANKLLCKESLDSMFVTVFYGIYHYKTGMMDYTNAGHNPPYLLRGGRTVECLPVASNFVVGVFDDIEFESNTLTFGIGDTLLLYTDGVTEAFNDKREQFSESNLQDILASMHESSSAKEVVTSVLQSVKTFSGDYPQSDDITLLSLQRIKEGHHHHHH | soluble |
| MSLDAEKQLANITMGLPLSPAADSARSARHALSLIATARPPAFITTIAKEVHRHTALAANTQSQQSIHTTTLARAKGEILRVIEILIEKMPTDVVDLLVEVMDIIMYCLEGSLVKKKGLQECFPAICRFYMVSYYERSHRIAVGARHGSVALYDIRTGKCQTIHGHKGPITAVSFAPDGRYLATYSNTDSHISFWQMNTSLLGSIGMLNSAPQLRCIKTYQVPPVQPASPGSHNALKLARLIWTSNRNVILMAHDGKEHRFMVEGHHHHHH | not soluble |
| MSLDAELVDWELAVTTAKKLVRPGPQRSRAEADEIVSELRRLAVVAEGHVQDYTQLVPAGPPTPIAVVDRPEWVRSNVAGLRVATMPLIEKLSDQSRGRLAAAVGRRVTGVQVGSALAYLAGKVLGQFEVFLPPEEYEAGSAASAPSLAKPGAPTPVGRLSLVAPNIAHAEETLRVVPRDFRLWVCLHEQTHRSQFTAVPWLREHLESEIAAFIGATDLDPDVLADRLRSAVTALRSAVRDHGPDTPSVVEALQTPAQRAVLDRLQALMSLLEGHADQVMDAVGPQVVPTVADIRGKFDNRRSGGSPIDRFLRRLLGLDLKMQQYRQGGAFVRAVVAEVGVEGFNHVWQSPRTLPTRPELTDPGAWMLRVLGTREGHHHHHH | soluble |
| MSLDAPRFHIEEIRFSERDVALRLPFRFGAATVTACPQVYVRARIRFENGGTAEGCAAEMMVPKWFDKNPALSNEQNFEQLRCALRAARAAYVAEDGAQTAWTHFASNYAALQARAKAKGLQALVASYGPALIDRAVMDALCLRSGTSFATAMRANLCGIDIAGSGLADDLAGFDMPAFLASQSPRASIAARHTVGLADAIDDSDALPDAPADGLPTTLAEAVKRYGLTHFKPKLCGNTAQDISRLERIARVIDGHAQLVTLDGNEQYADADDFAVFLDRMLSTPVLWKLAQKTVFVEQPIRRDAALQRSVSAPGKRIPLLIDESDATLDAFVQARALGYTGVSSKSCKGFYKSVVNAARCAHWNAAEDKPRYFLSGEDLTMQAGIGVQQDLALVGWLGLSHVERNGHHYVNGLAAVPEAEQQALLKLHPGLYEPGDGAVRLAIRGGQLPLAPLAAAPGFATGIPGAGISWDAMRSVYEGHHHHHH | not soluble |
| MSLDDERTQVLLKRDSEVFLHQAMSTPCLDTLDAAEGIYIQDATGKKYMDFHGNNVHQLGYGHPHVIKRVQEQIAKLPFSPRRFTNETAIECAEKLTQICGGELNRVLFAPGGTSAVGMALKLARHITGNYKVVSLWDSFHGASLDAISVGGEACFRQGMGPLMAGVERIPPAVSYRGAFPVADGSDVHYADYLEYVIEKEGGVGAFIAEAVRNTDVQVPSKAYWKRIREICDKHNVMLIIDDIPNGMGRSGEWFTYQAYDIEPDMLCIGKGLGGGLVPIAAMVTKDKYNTAEQISMGHYTHEKSPIGCAAALATMEAIEQDGLLDKVKADSQFMREKLLEMKAKYPVIGDVRGIGMLWGIELVTDHESKARAYDEAEAVLYQCLNNGVSFKVSQGNVIQLSPPLIITREQLTEALAIFEEAIAKVCKEGHHHHHH | not soluble |
| MSLDDLAQLANEVKASFVRLVNEDANSHMIGTAMSTIGRAFTQRIIELVEAELGAAPLPYCFVAFGSMGRDEQLIVTDQDNALILDDRYDVQQHGAYFAQFAELVCRGLDRCGYPLCDGEIMASNPKWRMTRKEWETCFADWIDNPNPQALLNASIFFDLDGVYGRTKWAEQLSGFIVRRARRNQRFLACLARNALNRTPPLGFFKNFVMEKDGRHNNSINLKRRGTAPLADLIRVHALAAGSRAKNSFERLDDVIEAGLLPQGKGKDLRDALEFIAMVRIRHQAIDVEQEGHHHHHH | not soluble |
